These results are taken from publication PMC10942602.

For experiment [1], the target named is GFP-Nrxn3α(25b+) (rat).
Experiment [2] addresses GFP-Nrxn3α(25b+) (rat). The experiment is described as follows: immunostaining of cells or tissue; co-culture (2 days) of HEK293 cells secreting myc-tagged C1ql2 or C1ql2.K262E with primary hippocampal neurons transfected with GFP-Nrxn3α(25b+); fixed, stained for myc and GFP; area of the masked HEK293 cell covered by GFP-Nrxn3α(25b+)-positive neuronal profiles; 25 cells per condition and experiment, N=3.

6xHis-myc-tagged C1ql2, sequence (Q8CFR0 22-287): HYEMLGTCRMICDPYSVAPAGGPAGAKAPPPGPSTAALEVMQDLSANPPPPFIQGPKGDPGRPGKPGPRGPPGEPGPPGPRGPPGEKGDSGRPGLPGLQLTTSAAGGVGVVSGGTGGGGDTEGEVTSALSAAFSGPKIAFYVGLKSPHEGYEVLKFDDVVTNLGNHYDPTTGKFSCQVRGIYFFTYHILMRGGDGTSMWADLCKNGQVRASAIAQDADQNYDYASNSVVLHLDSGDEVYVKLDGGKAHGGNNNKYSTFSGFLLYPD
GFP-Nrxn3α(25b+) (rat), sequence (Q07310 28-1578): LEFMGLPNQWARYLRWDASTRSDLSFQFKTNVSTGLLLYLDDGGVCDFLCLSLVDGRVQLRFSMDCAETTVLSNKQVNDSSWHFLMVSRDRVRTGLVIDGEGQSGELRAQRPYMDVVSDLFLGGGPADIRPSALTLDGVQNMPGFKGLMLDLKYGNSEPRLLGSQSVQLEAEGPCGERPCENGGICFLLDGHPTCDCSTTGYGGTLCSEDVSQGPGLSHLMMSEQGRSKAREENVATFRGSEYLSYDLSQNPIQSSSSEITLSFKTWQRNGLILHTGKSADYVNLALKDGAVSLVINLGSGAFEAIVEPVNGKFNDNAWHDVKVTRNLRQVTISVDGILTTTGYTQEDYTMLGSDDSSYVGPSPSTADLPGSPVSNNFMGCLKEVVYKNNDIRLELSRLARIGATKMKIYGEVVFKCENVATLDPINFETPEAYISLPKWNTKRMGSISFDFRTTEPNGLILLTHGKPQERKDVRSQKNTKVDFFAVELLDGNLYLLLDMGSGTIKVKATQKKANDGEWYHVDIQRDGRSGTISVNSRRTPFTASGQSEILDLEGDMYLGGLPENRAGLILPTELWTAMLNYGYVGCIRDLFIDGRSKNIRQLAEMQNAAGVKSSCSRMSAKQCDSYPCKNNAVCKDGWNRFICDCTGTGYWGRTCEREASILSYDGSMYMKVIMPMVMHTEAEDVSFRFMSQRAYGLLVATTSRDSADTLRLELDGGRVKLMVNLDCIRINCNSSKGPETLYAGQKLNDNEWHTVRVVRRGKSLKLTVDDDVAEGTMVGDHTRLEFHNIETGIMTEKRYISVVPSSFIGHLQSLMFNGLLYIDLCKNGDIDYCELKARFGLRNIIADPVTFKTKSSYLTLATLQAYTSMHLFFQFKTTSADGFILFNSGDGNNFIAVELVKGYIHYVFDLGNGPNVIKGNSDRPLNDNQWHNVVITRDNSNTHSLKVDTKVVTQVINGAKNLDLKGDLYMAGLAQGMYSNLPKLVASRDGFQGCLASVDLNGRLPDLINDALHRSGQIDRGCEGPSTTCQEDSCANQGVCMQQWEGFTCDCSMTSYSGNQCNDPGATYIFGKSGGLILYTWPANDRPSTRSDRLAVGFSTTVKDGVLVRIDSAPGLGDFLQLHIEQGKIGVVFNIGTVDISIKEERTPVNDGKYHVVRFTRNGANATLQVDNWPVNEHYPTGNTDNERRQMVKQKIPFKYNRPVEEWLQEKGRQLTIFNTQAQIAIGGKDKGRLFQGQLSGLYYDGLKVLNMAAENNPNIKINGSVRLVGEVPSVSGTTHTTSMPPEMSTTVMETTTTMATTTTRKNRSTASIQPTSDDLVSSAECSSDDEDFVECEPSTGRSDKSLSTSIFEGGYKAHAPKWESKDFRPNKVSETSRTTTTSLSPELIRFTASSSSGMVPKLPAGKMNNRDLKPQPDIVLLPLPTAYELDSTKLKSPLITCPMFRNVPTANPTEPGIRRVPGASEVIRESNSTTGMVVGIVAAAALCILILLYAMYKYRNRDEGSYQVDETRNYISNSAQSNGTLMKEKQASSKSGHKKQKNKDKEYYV

In the case of “6xHis-myc-tagged C1ql2.K262E (from UniProt Q8CFR0 22-287) (natural protein)”, the vGlut1 accumulation in GFP-Nrxn3α(25b+)-expressing neurons contacting HEK293 cells expressing C1ql2.K262E (area of the HEK293 cell covered by vGlut1) in the experiment with GFP-Nrxn3α(25b+) (rat) [1] was 16.9.

Take “6xHis-myc-tagged C1ql2 (from UniProt Q8CFR0 22-287) (natural protein)”: the surface area of HEK293 cells covered by GFP-Nrxn3α(25b+)-positive neuronal profiles with GFP-Nrxn3α(25b+) (rat) [2] was 40.
